Source: US6911526B2, “Compounds that inhibit the interaction between signal-transducing proteins and the GLGF (PDZ/DHR) domain and uses thereof” (The Trustees of Columbia University in the City of New York, priority 1996, dated 2005)
Entries after “also recorded” stand apart in the source; their conditions may differ. Where no end group is shown, it is not given here.

Experiments:
Fas/FAP-1 binding [1] = assay: In vitro inhibition assay of Fas/FAP-1 binding (GST-Fas and in vitro-translated 35S-FAP-1); details: for binding of in vitro-translated FAP-1 to GST-Fas: FIG. 3A, C-terminal 15 amino acids at 1-1000 μM, human PAMP 1 mM as negative control
Protocol: HFAP-10 cDNA (Sato, et al. 1995) subcloned into the Bluescript vector pSK-II (Stratagene) was in vitro-translated from an internal methionine codon in the presence of ^35S-L-methionine using a coupled in vitro transcription/translation system (Promega, TNT lysate) and T7 RNA polymerase. The resulting ^35S-labeled protein was incubated with GST-Fas fusion proteins that had been immobilized on […] affinity beads (Pharmacia) in a buffer containing 150 mM NaCl, 50 mM Tris [pH 8.0], 5 mM DTT, 2 mM EDTA, 0.1% NP-40, 1 mM PMSF, 50 μg/ml leupeptin, 1 mM Benzamidine, and 7 μg/ml pepstatin for 16 hours at 4° C. After washing vigorously 4 times in the same buffer, associated proteins were recovered with the glutathione-Sepharose beads by centrifugation, eluted into boiling Laemmli buffer, and analyzed by SDS-PAGE and fluorography.
In vitro-translated [^35S]HFAP-1 was purified with a NAP-5 column (Pharmacia) and incubated with 3 μM of GST-fusion proteins for 16 hours at 4° C. After washing 4 times in the binding buffer, radioactivity incorporation was determined in a b counter. The percentage of binding inhibition was calculated as follows: percent inhibition=[radioactivity incorporation using GST-Fas (191-335) with peptides−radioactivity incorporation using GST-Fas (191-320) with peptides]/[radioactivity incorporation using GST-Fas (191-335) without peptides−radioactivity incorporation using GST-Fas (191-320) without peptides]. n=3.

Fas/FAP-1 binding [2] = assay: Inhibition of binding of GST-FAP-1 to native Fas extracted from Jurkat T-cells (Western analysis); details: GST-FAP-1, Jurkat T-cell extracts; FIGS. 4C and 4D
Protocol: GST-fusion proteins with or without FAP-1 were incubated with cell extracts from Jurkat T-cells expressing Fas. The bound Fas was detected by Western analysis using anti-Fas monoclonal antibody (F22120, Transduction Laboratories). The tripeptides, Ac-SLV and Ac-SLY were used for the inhibition assay of Pas/FAP-1 binding.

[3] = tested on: DLD-1 human colon cancer cells; assay: Microinjection of synthetic tripeptides into DLD-1 cells, Fas-induced apoptosis; assay type: cell-based; details: tripeptide 100 mM microinjected into cytoplasm, Fas monoclonal antibody CH11 500 ng/ml, 16-20 hours postinjection, condensed chromatin (Hoechst 33342)
Protocol: DLD-1 human colon cancer cells were cultured in RPMI 1640 medium containing 10% FCS. For microinjection, cells were plated on CELLocate (Eppendorf) at 1×10^5 cells/2 ml in a 35 mm plastic culture dish and grown for 1 day. Just before microinjection, Fas monoclonal antibodies CH11 (MBL International) was added at the concentration of 500 ng/ml. All microinjection experiments were performed using an automatic microinjection system (Eppendorf transjector 5246, micro-manipulator 5171 and Femtotips) (Pantel, et al. 1995). Synthetic tripeptides were suspended in 0.1% (w/v) FITC-Dextran (Sigma)/K-PBS at the concentration of 100 mM. The samples were microinjected into the cytoplasmic region of DLD-1 cells. Sixteen to 20 hours postinjection, the cells were washed with PBS and stained with 10 μg/ml Hoechst 33342 in PBS. After incubation at 37° C. for 30 minutes, the cells were photographed and the cells showing condensed chromatin were counted as apoptotic.
For each experiment, 25-100 cells were microinjected. Apoptosis of microinjected cells was determined by assessing morphological changes of chromatin using phase contrast and fluorescence microscopy (Wang, et al., 1995; McGahon, et al., 1995). The data are means +/− S.D. for two or three independent determinations.

LexA-SLY fusion protein = target: T1, LexA-SLY fusion protein (UniProt P0A7C2 1-202); assay: yeast two-hybrid (growth on histidine-deficient medium)
T1 construct: Yeast two-hybrid bait; also called pBTM116 (LexA)-SLY
T1 sequence: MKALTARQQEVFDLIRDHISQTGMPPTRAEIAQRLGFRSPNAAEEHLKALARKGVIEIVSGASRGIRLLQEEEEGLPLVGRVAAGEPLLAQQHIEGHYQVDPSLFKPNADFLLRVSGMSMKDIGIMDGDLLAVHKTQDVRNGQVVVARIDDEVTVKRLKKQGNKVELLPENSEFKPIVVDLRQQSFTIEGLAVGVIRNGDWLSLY

LexA-SLA fusion protein = target: T2, LexA-SLA fusion protein (UniProt P0A7C2 1-202); assay: as above
T2 construct: Yeast two-hybrid bait; also called pBTM116 (LexA)-SLA
T2 sequence: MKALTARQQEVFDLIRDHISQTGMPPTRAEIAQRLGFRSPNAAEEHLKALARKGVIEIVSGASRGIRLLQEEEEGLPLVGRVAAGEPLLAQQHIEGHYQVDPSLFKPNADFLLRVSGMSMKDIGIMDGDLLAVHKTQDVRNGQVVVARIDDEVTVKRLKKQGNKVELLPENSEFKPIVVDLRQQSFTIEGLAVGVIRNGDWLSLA

LexA-PLV fusion protein = target: T3, LexA-PLV fusion protein (UniProt P0A7C2 1-202); assay: as above
T3 construct: Yeast two-hybrid bait; also called pBTM116 (LexA)-PLV; -PLy
T3 sequence: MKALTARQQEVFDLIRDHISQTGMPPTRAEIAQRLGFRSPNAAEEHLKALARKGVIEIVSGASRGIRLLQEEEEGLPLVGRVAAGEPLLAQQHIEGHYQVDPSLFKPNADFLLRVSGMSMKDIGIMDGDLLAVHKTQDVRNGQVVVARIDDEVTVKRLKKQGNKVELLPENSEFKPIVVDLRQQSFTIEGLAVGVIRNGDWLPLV

FAP-1 = assay: Interaction of C-terminal tripeptides fused to LexA with FAP-1 in yeast two-hybrid system; assay type: cell-based; details: LexA fusion co-transformed into yeast L40 with pVP16-FAP-1; FIG. 4A
Excerpt: The bait plasmids, pBTM116 (LexA)-SLV, -PLV, -SLY, and -SLA, were constructed and transformed into L40-strain with pVP16-FAP-1 or -ras. Six independent clones from each transformants were picked up for the analysis of growth on histidine-deficient medium. GST-Fas, -SLV, and PLV were purified with GST-Sepharose 4B affinity beads (Pharmacia). The methods for in vitro binding are described above.

## Ac-SLV-COOH (Ac-Ser-Leu-Val-OH) [acetylated tripeptide of the three C-terminal amino acids of Fas]
Fas/FAP-1 binding [1]; FIG. 3B, acetylated synthetic peptides
  inhibitory effect on the binding of FAP-1 to Fas, truncated acetylated peptides: same level of inhibitory effect
Fas/FAP-1 binding [2]
  binding activity of FAP-1 to Fas proteins extracted from Jurkat T-cells: abolished in a dose-dependent manner
[3]
  induction of apoptosis in microinjected DLD-1 cells: dramatically induced apoptosis

## Ac-SLY: acetylated synthetic tripeptide SLY, used as non-binding control (Ac-Ser-Leu-Tyr)
Fas/FAP-1 binding [2]
  binding activity of FAP-1 to Fas proteins extracted from Jurkat T-cells: not
[3]
  induction of apoptosis in microinjected DLD-1 cells: did not; also recorded: only one cell of the area appeared apoptotic

## DSENSNFRNEIQSLV (Ac-DSENSNFRNEIQSLV) [synthetic 15 amino acids of Fas, synthetic peptide of the C-terminal 15 amino acids of Fas]
Fas/FAP-1 binding [1]
  binding of in vitro-translated FAP-1 to GST-Fas: dramatically reduced and dependent on the concentration

## human PAMP peptide: N-terminal 20 amino acids of proadrenomedullin, negative control (ARLDVASEFRKKWNKWALSR) [reference compound]
Fas/FAP-1 binding [1]
  binding of in vitro-translated FAP-1 to GST-Fas: no effect

B1: FAP-1 expressed from plasmid pVP16-31 (VP16 fusion, yeast two-hybrid prey) (other)
chain: KMNFKTFSSSPPKPGDIFEVELAKNDNSLGISVTGGVNTSVRHGGIYVKAVIPQGAAESDGRIHKGDRVLAVNGVSLEGATHKQAVETLRNTGQVVHLLLEKGQSPTSKEHVPVTPQCTLS
notes: also called pVP16-FAP-1; Fas-associated phosphatase-1
LexA-SLY fusion protein
  binding result: no binding
LexA-SLA fusion protein
  binding result: no binding
LexA-PLV fusion protein
  binding result: no binding

B2: LexA-SLV: LexA DNA binding domain fused to tripeptide SLV (yeast bait) (protein)
chain: MKALTARQQEVFDLIRDHISQTGMPPTRAEIAQRLGFRSPNAAEEHLKALARKGVIEIVSGASRGIRLLQEEEEGLPLVGRVAAGEPLLAQQHIEGHYQVDPSLFKPNADFLLRVSGMSMKDIGIMDGDLLAVHKTQDVRNGQVVVARIDDEVTVKRLKKQGNKVELLPENSEFKPIVVDLRQQSFTIEGLAVGVIRNGDWLSLV
FAP-1
  association with FAP-1 in yeast (growth on histidine-deficient medium): associated with FAP-1

B3: LexA-PLV: LexA DNA binding domain fused to tripeptide PLV (yeast bait) (protein)
chain: MKALTARQQEVFDLIRDHISQTGMPPTRAEIAQRLGFRSPNAAEEHLKALARKGVIEIVSGASRGIRLLQEEEEGLPLVGRVAAGEPLLAQQHIEGHYQVDPSLFKPNADFLLRVSGMSMKDIGIMDGDLLAVHKTQDVRNGQVVVARIDDEVTVKRLKKQGNKVELLPENSEFKPIVVDLRQQSFTIEGLAVGVIRNGDWLPLV
FAP-1
  association with FAP-1 in yeast (growth on histidine-deficient medium): did not

B4: LexA-PLY: LexA DNA binding domain fused to tripeptide PLY (yeast bait) (protein)
chain: MKALTARQQEVFDLIRDHISQTGMPPTRAEIAQRLGFRSPNAAEEHLKALARKGVIEIVSGASRGIRLLQEEEEGLPLVGRVAAGEPLLAQQHIEGHYQVDPSLFKPNADFLLRVSGMSMKDIGIMDGDLLAVHKTQDVRNGQVVVARIDDEVTVKRLKKQGNKVELLPENSEFKPIVVDLRQQSFTIEGLAVGVIRNGDWLPLY
FAP-1
  association with FAP-1 in yeast (growth on histidine-deficient medium): did not

B5: LexA-SLY: LexA DNA binding domain fused to tripeptide SLY (yeast bait) (protein)
chain: MKALTARQQEVFDLIRDHISQTGMPPTRAEIAQRLGFRSPNAAEEHLKALARKGVIEIVSGASRGIRLLQEEEEGLPLVGRVAAGEPLLAQQHIEGHYQVDPSLFKPNADFLLRVSGMSMKDIGIMDGDLLAVHKTQDVRNGQVVVARIDDEVTVKRLKKQGNKVELLPENSEFKPIVVDLRQQSFTIEGLAVGVIRNGDWLSLY
FAP-1
  association with FAP-1 in yeast (growth on histidine-deficient medium): did not

B6: LexA-SLA: LexA DNA binding domain fused to tripeptide SLA (yeast bait) (protein)
chain: MKALTARQQEVFDLIRDHISQTGMPPTRAEIAQRLGFRSPNAAEEHLKALARKGVIEIVSGASRGIRLLQEEEEGLPLVGRVAAGEPLLAQQHIEGHYQVDPSLFKPNADFLLRVSGMSMKDIGIMDGDLLAVHKTQDVRNGQVVVARIDDEVTVKRLKKQGNKVELLPENSEFKPIVVDLRQQSFTIEGLAVGVIRNGDWLSLA
FAP-1
  association with FAP-1 in yeast (growth on histidine-deficient medium): did not
